Laboratory results published in patent US20090233318A1 (RECEPTOR LOGIC, published 2009).

Biological target: T1, activated soluble HLA-A*0201 (PolyTest) (human)
T1 construct: also called sHLA
Test: fluorescence polarization competition against 2.2 nM standard FITC-labeled peptide P5(A*0201), 40.5 µg/ml sHLA A*0201VLDL (2507)
Protocol: After reaching equilibrium conditions, fluorescence polarization expressed in mP was measured. Values obtained at different peptide dilutions were graphed and inhibitory concentrations expressed as log [IC50]'s determined by fitting the data to a dose-response model.
For all preparations, 1×BGG/PBS was used as buffer. […] FP values given as milli-polarization (mP) are calculated by the equation:polarization (mP)=1000(S−GP)/(S+GP), where S and P are background-subtracted intensities of the fluorescence measured in the parallel (S) and perpendicular (P) directions, respectively, and G (grating) is the instrument and assay dependent correction factor.
Competition experiments were analyzed by plotting FPₘₐₓ (maximal polarization) values as a function of the logarithms of competitor concentrations. […] Observed inhibitory concentrations (IC₅₀) were determined by nonlinear curve fitting to a dose-response model with variable slope using the specific software Prism (Graph Pad Software Inc.; San Diego, Calif.).

Binder | logIC50(nM)
TMTRVLQGV (Synthetic peptide; also called TMT(40)) [TMT peptide, TMTRVLQGV (hCGβ 40-48)] | 3.27 log10 of nM
GVLPALPQV (Synthetic peptide; also called GVL(47)) [GVL peptide, GVLPALPQV (hCGβ 47-55)] | 2.97 log10 of nM
VLQGVLPAL (Synthetic peptide; also called VLQ(44)) [VLQ peptide, VLQGVLPAL (hCGβ 44-52)] | 2.96 log10 of nM
